Assay results published in PMC9461429.
pKd: −log10 of the molar value.

Biological target: Human SARS-CoV-2_Wuhan S (SmT1), C-terminally fused to the resistin trimerization domain (SARS-CoV-2 (Wuhan-Hu-1) | not stated)
Assay: SPR

Sequence of Human ACE2 (aa18-615), His6-tagged monomeric ACE2 (Q9BYF1 18-615): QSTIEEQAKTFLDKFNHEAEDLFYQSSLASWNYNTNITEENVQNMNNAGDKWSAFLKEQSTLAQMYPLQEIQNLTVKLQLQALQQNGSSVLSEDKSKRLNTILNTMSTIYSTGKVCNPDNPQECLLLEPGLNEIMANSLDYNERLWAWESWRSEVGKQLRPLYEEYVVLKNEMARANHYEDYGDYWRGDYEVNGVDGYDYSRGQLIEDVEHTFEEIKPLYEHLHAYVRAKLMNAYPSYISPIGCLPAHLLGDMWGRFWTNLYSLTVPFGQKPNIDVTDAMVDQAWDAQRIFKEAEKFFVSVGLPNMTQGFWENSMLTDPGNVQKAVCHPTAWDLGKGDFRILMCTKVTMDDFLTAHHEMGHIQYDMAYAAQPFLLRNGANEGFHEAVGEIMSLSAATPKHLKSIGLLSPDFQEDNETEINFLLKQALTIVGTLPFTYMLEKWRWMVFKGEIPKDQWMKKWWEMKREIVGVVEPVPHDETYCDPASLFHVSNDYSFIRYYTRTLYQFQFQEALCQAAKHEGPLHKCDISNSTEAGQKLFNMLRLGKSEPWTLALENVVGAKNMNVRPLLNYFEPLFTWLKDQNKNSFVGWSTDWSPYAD

In the case of “Human ACE2 (aa18-615), His6-tagged monomeric ACE2 (from UniProt Q9BYF1-1 18-615) (receptor)”, the pKd was 6.78.
